Laboratory results published in paper PMC13215203, “Phosphorylation remodels the mitotic centrosome matrix to generate bipartite γ-tubulin complex docking sites” (Science Advances, 2026).
Values belong to the binder of their own block, whether it stands above or below them.

Tests used:
[1] = target: T1, untagged SPD-5 amino acids 101-473, not phosphorylated (C. elegans, UniProt P91349 101-473); assay: pull-down; MBP pull-down: purified SPD-5 fragments mixed (2.0 μM) with or without PLK1(T194D) in kinase buffer, then 75 nM each with anti-MBP antibody in lysis buffer 2 h at 4°C and protein A beads 1 h; M6HH-tagged fragment is the bait; immunoblot; conditions: both partners purified
T1 construct: also called fragment containing the γTuNA-In and PRGB2; source: E. coli BL21(DE3) pLysS, purified (glutathione agarose, cut from GST with PreScission or HRV-3C protease)
T1 sequence (looked up): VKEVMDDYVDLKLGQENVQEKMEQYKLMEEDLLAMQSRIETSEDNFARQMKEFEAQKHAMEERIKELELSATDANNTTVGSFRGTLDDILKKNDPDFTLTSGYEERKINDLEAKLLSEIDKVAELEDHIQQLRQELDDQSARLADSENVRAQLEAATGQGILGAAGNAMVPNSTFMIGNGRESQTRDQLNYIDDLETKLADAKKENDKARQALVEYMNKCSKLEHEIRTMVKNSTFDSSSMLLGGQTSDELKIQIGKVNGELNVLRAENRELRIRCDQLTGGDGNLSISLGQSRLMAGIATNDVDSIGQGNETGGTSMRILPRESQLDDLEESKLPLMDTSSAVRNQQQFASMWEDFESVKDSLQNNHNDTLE

[2] = target: the molecule itself; assay: SEC-MALS; Superose 6 increase 10/300 or Superdex 200 increase 10/300 in 20 mM tris-HCl pH 7.5, 50 mM NaCl, 5 mM EGTA, 2 mM MgCl2, 1 mM DTT; 120 μl of ~2.0 mg/ml protein loaded; with or without PLK1 phosphorylation
[3] = target: T2, M6HH-tagged SPD-5 amino acids 1-113 (PRGB1), not phosphorylated (C. elegans, UniProt P91349 1-113); assay: pull-down; MBP pull-down: purified SPD-5 fragments mixed (2.0 μM) with or without PLK1(T194D) in kinase buffer, then 75 nM each with anti-MBP antibody in lysis buffer 2 h at 4°C and protein A beads 1 h; M6HH-tagged fragment is the bait; immunoblot; conditions: both partners purified
T2 construct: source: E. coli BL21(DE3) pLysS, purified (Ni-NTA)
T2 sequence (looked up): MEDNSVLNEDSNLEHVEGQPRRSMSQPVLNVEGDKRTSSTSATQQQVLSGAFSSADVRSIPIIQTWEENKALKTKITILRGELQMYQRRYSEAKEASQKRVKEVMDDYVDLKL

binding result [1]: binds
B1: M6HH-tagged SPD-5 amino acids 1-101 (PRGB1), not phosphorylated (domain or fragment, C. elegans, UniProt P91349 1-101, looked up)
chain: MEDNSVLNEDSNLEHVEGQPRRSMSQPVLNVEGDKRTSSTSATQQQVLSGAFSSADVRSIPIIQTWEENKALKTKITILRGELQMYQRRYSEAKEASQKRV
notes: source: E. coli BL21(DE3) pLysS, purified (Ni-NTA)

B2: M6HH-tagged SPD-5 amino acids 1-345, not phosphorylated (domain or fragment, C. elegans, UniProt P91349 1-345, looked up)
chain: MEDNSVLNEDSNLEHVEGQPRRSMSQPVLNVEGDKRTSSTSATQQQVLSGAFSSADVRSIPIIQTWEENKALKTKITILRGELQMYQRRYSEAKEASQKRVKEVMDDYVDLKLGQENVQEKMEQYKLMEEDLLAMQSRIETSEDNFARQMKEFEAQKHAMEERIKELELSATDANNTTVGSFRGTLDDILKKNDPDFTLTSGYEERKINDLEAKLLSEIDKVAELEDHIQQLRQELDDQSARLADSENVRAQLEAATGQGILGAAGNAMVPNSTFMIGNGRESQTRDQLNYIDDLETKLADAKKENDKARQALVEYMNKCSKLEHEIRTMVKNSTFDSSSMLLGG
notes: as for B1
stoichiometry N [2]: 2

binding result [3]: binds
B3: Halo-tagged SPD-5 amino acids 135-200, not phosphorylated (domain or fragment, C. elegans, UniProt P91349 135-200, looked up)
chain: MQSRIETSEDNFARQMKEFEAQKHAMEERIKELELSATDANNTTVGSFRGTLDDILKKNDPDFTLT
notes: as for B1

B4: untagged SPD-5 amino acids 1-473, not phosphorylated (domain or fragment, C. elegans, UniProt P91349 1-473, looked up)
chain: MEDNSVLNEDSNLEHVEGQPRRSMSQPVLNVEGDKRTSSTSATQQQVLSGAFSSADVRSIPIIQTWEENKALKTKITILRGELQMYQRRYSEAKEASQKRVKEVMDDYVDLKLGQENVQEKMEQYKLMEEDLLAMQSRIETSEDNFARQMKEFEAQKHAMEERIKELELSATDANNTTVGSFRGTLDDILKKNDPDFTLTSGYEERKINDLEAKLLSEIDKVAELEDHIQQLRQELDDQSARLADSENVRAQLEAATGQGILGAAGNAMVPNSTFMIGNGRESQTRDQLNYIDDLETKLADAKKENDKARQALVEYMNKCSKLEHEIRTMVKNSTFDSSSMLLGGQTSDELKIQIGKVNGELNVLRAENRELRIRCDQLTGGDGNLSISLGQSRLMAGIATNDVDSIGQGNETGGTSMRILPRESQLDDLEESKLPLMDTSSAVRNQQQFASMWEDFESVKDSLQNNHNDTLE
notes: also called SPD-5 N terminus; source: E. coli BL21(DE3) pLysS, purified (glutathione agarose, cut from GST with PreScission or HRV-3C protease; gel filtration)
stoichiometry N [2]: 2

B5: M6HH-tagged SPD-5 amino acids 1-473, not phosphorylated (domain or fragment, C. elegans, UniProt P91349 1-473, looked up)
chain: B4 chain
notes: as for B1
stoichiometry N [2]: 2

B6: untagged SPD-5 amino acids 1-473, phosphorylated by PLK1 (domain or fragment, C. elegans, UniProt P91349 1-473, looked up)
chain: B4 chain
modifications: phosphorylated in vitro by PLK1; predicted sites S5, S11, S170, T178, T198, T274, T335, S339, S340
notes: also called SPD-5 N terminus; source: E. coli BL21(DE3) pLysS, purified (glutathione agarose, cut from GST), then incubated with PLK1 and ATP
stoichiometry N [2]: 2
